These results are taken from US20190352343A1 (AUCKLAND UNISERVICES, published 2019).

In experiment [1] the target is T1, Mol8 (Mobiluncus mulieris).
T1 construct: also called Mol8 construct
T1 chain: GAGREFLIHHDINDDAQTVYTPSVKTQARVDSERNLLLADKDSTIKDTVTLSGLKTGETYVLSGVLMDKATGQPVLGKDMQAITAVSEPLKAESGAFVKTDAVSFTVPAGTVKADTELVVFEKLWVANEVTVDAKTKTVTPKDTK
Description: SDS-PAGE of mixed Mol domains, ester bond ligation.

For experiment [2], the target named is T2, Mol9 (Mobiluncus mulieris).
T2 construct: also called Mol9 construct
T2 chain: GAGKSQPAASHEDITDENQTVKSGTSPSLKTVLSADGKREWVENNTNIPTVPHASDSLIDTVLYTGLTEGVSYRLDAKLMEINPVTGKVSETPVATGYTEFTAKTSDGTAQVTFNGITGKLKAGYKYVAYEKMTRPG
Nature of the experiment: SDS-PAGE of mixed Mol domains, ester bond ligation.

B1: Mol10 (other)
chain: GAPDKPVPPPHEDPKDPNQTVVSEHNPGITTTLTDAQAAKGTDGKVISLTRDAQLKDVVRVTQTGLIEGAKYHVFSKLVNQANPDQVVSAGMQEFTATGDQLRSVTVKFTVPKETLQELAGSDPSAEFKLVAYEYLALDSDTDIVNKEATSEIEAVGFK
notes: also called Mol10 construct
For the molecule B1, in experiment [1], the binding result is recorded as “no binding (tested: equimolar amounts, 24 h)”.

B2: Mol11 (other)
chain: GAGKTWAATHADPNDAGQTVTVVKAPKIGTTLKYGQSKTVWVADKVELTDTVEYFNLQPKTKYTLSGNLMGGTSAESLSDTGVKATTEFTTPAAANGAQTVSGTAVVKFTVPREVLERNEKLVAYEYLTIDGNPVASHEDPKDENQTVTSKKP
notes: also called Mol11 domain construct
Take B2: the binding result is given as “no binding (tested: equimolar amounts, 24 h)” in experiment [1] and “no binding (tested: equimolar amounts, 24 h)” in experiment [2].
